# Reference: patent US20260167699A1 (Chugai, published 2026)
# B1: GpH7-A5/GpH7-B3 variant I336_18N/GpL16-k0 (antibody, human IgG1, kappa)
# heavy 1: not shown
# heavy 2: not shown
# light: DIVMTQSPLSLPVTPGEPASISCQASESLVHSNRNTYLHWYLQKPGQSPQLLIYKVSNRFSGVPDRFSGSGSGTDFTLKISRVEAEDVGVYYCSQNTHVPPTFGQGTKVEIERTVAAPSVFIFPPSDEQLKSGTASVVCLLNNFYPREAKVQWKVDNALQSGNSQESVTEQDSKDSTYSLSSTLTLSKADYEKHKVYACEVTHQGLSSPVTKSFNRGEC
# notes: copies: 1 + 1 + 2
# B2: GpH7-A5/GpH7-B3 variant L234_15Y/GpL16-k0 (antibody, human IgG1, kappa)
# heavy 1: not shown
# heavy 2: not shown
# light: B1 light
# notes: copies: 1 + 1 + 2
# B3: GpH7-A5/GpH7-B3 variant K334_12R/GpL16-k0 (antibody, human IgG1, kappa)
# heavy 1: not shown
# heavy 2: not shown
# light: B1 light
# notes: copies: 1 + 1 + 2
# B4: GpH7-A5/GpH7-B3 variant L234_18N/GpL16-k0 (antibody, human IgG1, kappa)
# heavy 1: not shown
# heavy 2: not shown
# light: B1 light
# notes: copies: 1 + 1 + 2
# B5: GpH7-A5/GpH7-B3 variant K326_03V/GpL16-k0 (antibody, human IgG1, kappa)
# heavy 1: not shown
# heavy 2: not shown
# light: B1 light
# notes: copies: 1 + 1 + 2
# B6: GpH7-A5/GpH7-B3 variant K334_05P/GpL16-k0 (antibody, human IgG1, kappa)
# heavy 1: not shown
# heavy 2: not shown
# light: B1 light
# notes: copies: 1 + 1 + 2
# B7: GpH7-A5/GpH7-B3 variant K334_19Q/GpL16-k0 (antibody, human IgG1, kappa)
# heavy 1: not shown
# heavy 2: not shown
# light: B1 light
# notes: copies: 1 + 1 + 2
# B8: GpH7-A5/GpH7-B3 variant L235_06M/GpL16-k0 (antibody, human IgG1, kappa)
# heavy 1: not shown
# heavy 2: not shown
# light: B1 light
# notes: copies: 1 + 1 + 2
# B9: GpH7-A5/GpH7-B3 variant L235_02A/GpL16-k0 (antibody, human IgG1, kappa)
# heavy 1: not shown
# heavy 2: not shown
# light: B1 light
# notes: copies: 1 + 1 + 2
# B10: GpH7-A5/GpH7-B3 variant K334_15Y/GpL16-k0 (antibody, human IgG1, kappa)
# heavy 1: not shown
# heavy 2: not shown
# light: B1 light
# notes: copies: 1 + 1 + 2
# B11: GpH7-A5/GpH7-B3 variant K326_01G/GpL16-k0 (antibody, human IgG1, kappa)
# heavy 1: not shown
# heavy 2: not shown
# light: B1 light
# notes: copies: 1 + 1 + 2
# B12: GpH7-A5/GpH7-B3 variant K334_07I/GpL16-k0 (antibody, human IgG1, kappa)
# heavy 1: not shown
# heavy 2: not shown
# light: B1 light
# notes: copies: 1 + 1 + 2
# B13: GpH7-A5/GpH7-B3 variant L235_07I/GpL16-k0 (antibody, human IgG1, kappa)
# heavy 1: not shown
# heavy 2: not shown
# light: B1 light
# notes: copies: 1 + 1 + 2
# B14: GpH7-A5/GpH7-B3 variant K326_04F/GpL16-k0 (antibody, human IgG1, kappa)
# heavy 1: not shown
# heavy 2: not shown
# light: B1 light
# notes: copies: 1 + 1 + 2
# B15: GpH7-A5/GpH7-B3 variant K334_18N/GpL16-k0 (antibody, human IgG1, kappa)
# heavy 1: not shown
# heavy 2: not shown
# light: B1 light
# notes: copies: 1 + 1 + 2
# B16: GpH7-A5/GpH7-B3 variant L234_16H/GpL16-k0 (antibody, human IgG1, kappa)
# heavy 1: not shown
# heavy 2: not shown
# light: B1 light
# notes: copies: 1 + 1 + 2
# B17: GpH7-A5/GpH7-B3 variant K334_02A/GpL16-k0 (antibody, human IgG1, kappa)
# heavy 1: not shown
# heavy 2: not shown
# light: B1 light
# notes: copies: 1 + 1 + 2
# B18: GpH7-A5/GpH7-B3 variant L235_03V/GpL16-k0 (antibody, human IgG1, kappa)
# heavy 1: not shown
# heavy 2: not shown
# light: B1 light
# notes: copies: 1 + 1 + 2
# B19: GpH7-A5/GpH7-B3 variant L234_05P/GpL16-k0 (antibody, human IgG1, kappa)
# heavy 1: not shown
# heavy 2: not shown
# light: B1 light
# notes: copies: 1 + 1 + 2
# B20: GpH7-A5/GpH7-B3 variant L234_01G/GpL16-k0 (antibody, human IgG1, kappa)
# heavy 1: not shown
# heavy 2: not shown
# light: B1 light
# notes: copies: 1 + 1 + 2
# B21: GpH7-A5/GpH7-B3 variant L234_10E/GpL16-k0 (antibody, human IgG1, kappa)
# heavy 1: not shown
# heavy 2: not shown
# light: B1 light
# notes: copies: 1 + 1 + 2
# B22: GpH7-A5/GpH7-B3 variant L235_04F/GpL16-k0 (antibody, human IgG1, kappa)
# heavy 1: not shown
# heavy 2: not shown
# light: B1 light
# notes: copies: 1 + 1 + 2
# B23: GpH7-A5/GpH7-B3 variant K326_12R/GpL16-k0 (antibody, human IgG1, kappa)
# heavy 1: not shown
# heavy 2: not shown
# light: B1 light
# notes: copies: 1 + 1 + 2
# B24: GpH7-A5/GpH7-B3 variant K334_13S/GpL16-k0 (antibody, human IgG1, kappa)
# heavy 1: not shown
# heavy 2: not shown
# light: B1 light
# notes: copies: 1 + 1 + 2
# B25: GpH7-A5/GpH7-B3 variant K334_08L/GpL16-k0 (antibody, human IgG1, kappa)
# heavy 1: not shown
# heavy 2: not shown
# light: B1 light
# notes: copies: 1 + 1 + 2
# B26: GpH7-A5/GpH7-B3 variant K334_06M/GpL16-k0 (antibody, human IgG1, kappa)
# heavy 1: not shown
# heavy 2: not shown
# light: B1 light
# notes: copies: 1 + 1 + 2
# B27: GpH7-A5/GpH7-B3 variant K334_16H/GpL16-k0 (antibody, human IgG1, kappa)
# heavy 1: not shown
# heavy 2: not shown
# light: B1 light
# notes: copies: 1 + 1 + 2
# B28: GpH7-A5/GpH7-B3 variant K326_08L/GpL16-k0 (antibody, human IgG1, kappa)
# heavy 1: not shown
# heavy 2: not shown
# light: B1 light
# notes: copies: 1 + 1 + 2
# B29: GpH7-A5/GpH7-B3 variant K334_20W/GpL16-k0 (antibody, human IgG1, kappa)
# heavy 1: not shown
# heavy 2: not shown
# light: B1 light
# notes: copies: 1 + 1 + 2
# B30: GpH7-A5/GpH7-B3 variant K334_14T/GpL16-k0 (antibody, human IgG1, kappa)
# heavy 1: not shown
# heavy 2: not shown
# light: B1 light
# notes: copies: 1 + 1 + 2
# Target: T1, FcγRIIIa (human, UniProt P08637 17-208)
# T1 construct: extracellular domain; also called 3a; FcγRIIIa extracellular domain
# Assay: SPR (Biacore);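 further: antibody variants captured on an SPR sensor chip, with FcγRIIIa passed over as analyte in HBS-EP+ buffer at 25 °C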
# T1 sequence (P08637 other isoform, or with tags, fused parts or gaps): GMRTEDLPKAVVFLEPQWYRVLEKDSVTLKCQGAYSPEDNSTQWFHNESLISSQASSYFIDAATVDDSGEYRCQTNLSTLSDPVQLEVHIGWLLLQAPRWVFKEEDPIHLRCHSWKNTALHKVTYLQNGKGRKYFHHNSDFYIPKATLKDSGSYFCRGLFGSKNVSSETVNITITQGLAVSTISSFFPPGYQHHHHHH
row,He/Con 3a,Binder
1,99.4 % of GpH7-A5/GpH7-B3/GpL16-k0,B1
2,126 % of GpH7-A5/GpH7-B3/GpL16-k0,B2
3,93.5 % of GpH7-A5/GpH7-B3/GpL16-k0,B3
4,88.2 % of GpH7-A5/GpH7-B3/GpL16-k0,B4
5,135 % of GpH7-A5/GpH7-B3/GpL16-k0,B5
6,138 % of GpH7-A5/GpH7-B3/GpL16-k0,B6
7,140 % of GpH7-A5/GpH7-B3/GpL16-k0,B7
8,75.6 % of GpH7-A5/GpH7-B3/GpL16-k0,B8
9,72 % of GpH7-A5/GpH7-B3/GpL16-k0,B9
10,145 % of GpH7-A5/GpH7-B3/GpL16-k0,B10
11,114 % of GpH7-A5/GpH7-B3/GpL16-k0,B11
12,156 % of GpH7-A5/GpH7-B3/GpL16-k0,B12
13,92.8 % of GpH7-A5/GpH7-B3/GpL16-k0,B13
14,114 % of GpH7-A5/GpH7-B3/GpL16-k0,B14
15,140 % of GpH7-A5/GpH7-B3/GpL16-k0,B15
16,76.8 % of GpH7-A5/GpH7-B3/GpL16-k0,B16
17,152 % of GpH7-A5/GpH7-B3/GpL16-k0,B17
18,94.6 % of GpH7-A5/GpH7-B3/GpL16-k0,B18
19,85.1 % of GpH7-A5/GpH7-B3/GpL16-k0,B19
20,55.8 % of GpH7-A5/GpH7-B3/GpL16-k0,B20
21,111 % of GpH7-A5/GpH7-B3/GpL16-k0,B21
22,76.4 % of GpH7-A5/GpH7-B3/GpL16-k0,B22
23,101 % of GpH7-A5/GpH7-B3/GpL16-k0,B23
24,150 % of GpH7-A5/GpH7-B3/GpL16-k0,B24
25,148 % of GpH7-A5/GpH7-B3/GpL16-k0,B25
26,149 % of GpH7-A5/GpH7-B3/GpL16-k0,B26
27,138 % of GpH7-A5/GpH7-B3/GpL16-k0,B27
28,126 % of GpH7-A5/GpH7-B3/GpL16-k0,B28
29,132 % of GpH7-A5/GpH7-B3/GpL16-k0,B29
30,146 % of GpH7-A5/GpH7-B3/GpL16-k0,B30
